Reference: article PMC4753449, “Conformational plasticity of RepB, the replication initiator protein of promiscuous streptococcal plasmid pMV158” (Scientific Reports, 2016)

B1: RepB, rolling-circle replication initiator protein of plasmid pMV158 (hexamer) (natural protein, UniProt P13921 1-210, looked up)
chain: MAKEKARYFTFLLYPESIPSDWELKLETLGVPMAISPLHDKDKSSIKGQKYKKAHYHVLYIAKNPVTADSVRKKIKLLLGEKSLAMVQVVLNVENMYLYLTHESKDAIAKKKHVYDKADIKLINNFDIDRYVTLDVEEKTELFNVVVSLIRAYTLQNIFDLYDFIDENGETYGLTINLVNEVIAGKTGFMKLLFDGAYQRSKRGTKNEER
notes: RepB, replication initiator protein encoded by the promiscuous plasmid pMV158, originally isolated from Streptococcus agalactiae; 24 kDa polypeptide; OBD (N-terminal) and OD (C-terminal) domains; the OD construct ends at residue 210; The final model of 4U87 comprises residues 3-204 of three protomers in the asymmetric unit; also called RepB6; RepB hexamer
B2: RepB OD (oligomerisation domain, residues 127 to 210) (domain or fragment, UniProt P13921 127-210, looked up)
chain: DIDRYVTLDVEEKTELFNVVVSLIRAYTLQNIFDLYDFIDENGETYGLTINLVNEVIAGKTGFMKLLFDGAYQRSKRGTKNEER
notes: RepB of plasmid pMV158 (Streptococcus agalactiae), oligomerisation domain, residues 127 to 210; theoretical mass of the hexamer 58,300 Da; also called OD-only construct; OD hexamer; source: Escherichia coli M15, purified (Ni-NTA agarose), His-tag removed with TAGZyme; not shown: His6, N-terminal, cleaved

What was measured:
[1] = target: the molecule itself; assay: SAXS; free RepB in solution at 20, 40 and 83 μM RepB6 (12.1, 5.8 and 2.9 mg/mL); 10 mM TRIS pH 8.5, 5 mM EDTA, 1.0 M KCl
[2] = target: the molecule itself; assay: AUC; sedimentation equilibrium, 20 °C, 20 mM NaH2PO4 pH 7.0, 150 mM NaCl; OBD 10-60 μM at 22,000 rpm, OD 10-100 μM at 13,000 rpm; single-species model

Row | Protein | stoichiometry N [1] | stoichiometry N [2]
1 | B1 | 6 | –
2 | B2 | – | 6
